From paper PMC8421143 (Nucleic Acids Research, 2021) come the findings set out here.

This test deals with recombinant full-length human BLM with a C-terminal His6-tag (human, UniProt P54132 1-1417). The test can be described thus: co-IP.
Chain of recombinant full-length human BLM with a C-terminal His6-tag (P54132 whole entry): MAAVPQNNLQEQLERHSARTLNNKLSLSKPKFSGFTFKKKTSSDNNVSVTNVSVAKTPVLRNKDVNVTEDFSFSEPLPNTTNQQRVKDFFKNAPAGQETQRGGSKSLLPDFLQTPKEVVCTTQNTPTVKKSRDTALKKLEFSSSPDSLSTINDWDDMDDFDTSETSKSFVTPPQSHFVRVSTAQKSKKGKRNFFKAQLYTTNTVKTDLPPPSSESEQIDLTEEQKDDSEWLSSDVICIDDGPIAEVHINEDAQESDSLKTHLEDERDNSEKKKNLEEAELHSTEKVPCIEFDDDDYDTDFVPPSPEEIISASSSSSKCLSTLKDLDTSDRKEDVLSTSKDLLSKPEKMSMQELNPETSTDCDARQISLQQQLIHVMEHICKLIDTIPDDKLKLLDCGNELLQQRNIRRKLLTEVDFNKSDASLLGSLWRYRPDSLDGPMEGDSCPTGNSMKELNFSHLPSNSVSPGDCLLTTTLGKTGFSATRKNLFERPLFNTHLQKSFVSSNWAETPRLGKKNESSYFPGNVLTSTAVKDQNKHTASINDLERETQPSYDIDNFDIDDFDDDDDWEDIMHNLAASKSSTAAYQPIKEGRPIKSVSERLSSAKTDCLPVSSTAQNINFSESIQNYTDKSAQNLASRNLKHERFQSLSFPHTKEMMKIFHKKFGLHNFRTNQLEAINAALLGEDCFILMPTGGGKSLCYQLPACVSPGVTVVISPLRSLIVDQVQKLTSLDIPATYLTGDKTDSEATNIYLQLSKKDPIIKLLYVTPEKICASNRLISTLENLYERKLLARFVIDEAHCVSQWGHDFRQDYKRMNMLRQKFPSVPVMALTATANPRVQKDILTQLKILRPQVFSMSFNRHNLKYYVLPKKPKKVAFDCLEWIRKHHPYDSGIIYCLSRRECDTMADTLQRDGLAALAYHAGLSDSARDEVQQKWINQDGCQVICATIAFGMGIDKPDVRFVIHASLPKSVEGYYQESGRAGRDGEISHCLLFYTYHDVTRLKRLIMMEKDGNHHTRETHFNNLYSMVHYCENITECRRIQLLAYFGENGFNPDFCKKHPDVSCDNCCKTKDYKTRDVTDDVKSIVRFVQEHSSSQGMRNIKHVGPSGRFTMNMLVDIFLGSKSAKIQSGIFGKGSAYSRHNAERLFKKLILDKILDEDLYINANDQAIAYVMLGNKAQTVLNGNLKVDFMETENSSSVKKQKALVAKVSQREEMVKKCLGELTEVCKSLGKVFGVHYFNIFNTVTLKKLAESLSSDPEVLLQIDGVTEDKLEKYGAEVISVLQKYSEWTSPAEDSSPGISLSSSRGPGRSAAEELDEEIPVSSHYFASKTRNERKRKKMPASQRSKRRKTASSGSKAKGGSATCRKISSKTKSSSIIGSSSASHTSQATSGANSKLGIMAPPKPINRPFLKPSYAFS

B1: recombinant full length human Mcm6 from wheat germ (natural protein)
chain: MDLAAAAEPGAGSQHLEVRDEVAEKCQKLFLDFLEEFQSSDGEIKYLQLAEELIRPERNTLVVSFVDLEQFNQQLSTTIQEEFYRVYPYLCRALKTFVKDRKEIPLAKDFYVAFQDLPTRHKIRELTSSRIGLLTRISGQVVRTHPVHPELVSGTFLCLDCQTVIRDVEQQFKYTQPNICRNPVCANRRRFLLDTNKSRFVDFQKVRIQETQAELPRGSIPRSLEVILRAEAVESAQAGDKCDFTGTLIVVPDVSKLSTPGARAETNSRVSGVDGYETEGIRGLRALGVRDLSYRLVFLACCVAPTNPRFGGKELRDEEQTAESIKNQMTVKEWEKVFEMSQDKNLYHNLCTSLFPTIHGNDEVKRGVLLMLFGGVPKTTGEGTSLRGDINVCIVGDPSTAKSQFLKHVEEFSPRAVYTSGKASSAAGLTAAVVRDEESHEFVIEAGALMLADNGVCCIDEFDKMDVRDQVAIHEAMEQQTISITKAGVKATLNARTSILAAANPISGHYDRSKSLKQNINLSAPIMSRFDLFFILVDECNEVTDYAIARRIVDLHSRIEESIDRVYSLDDIRRYLLFARQFKPKISKESEDFIVEQYKHLRQRDGSGVTKSSWRITVRQLESMIRLSEAMARMHCCDEVQPKHVKEAFRLLNKSIIRVETPDVNLDQEEEIQMEVDEGAGGINGHADSPAPVNGINGYNEDINQESAPKASLRLGFSEYCRISNLIVLHLRKVEEEEDESALKRSELVNWYLKEIESEIDSEEELINKKRIIEKVIHRLTHYDHVLIELTQAGLKGSTEGSESYEEDPYLVVNPNYLLED
In the case of B1, the binding result is recorded as “binds”.
